# Patent US11054430B2, “Compounds and methods for the detection of methotrexate” (Defined Diagnostics, LLC, priority 2015, dated 2021)
# Experiments:
# Assay type in all cases: binding
# Settings in all cases: chemical spiked at 100 μM; calculated MTX concentration divided by 100 μM
# [1] = MTX antibody cross-reactivity with Folinic Acid (competitive assay)
# Procedure: (§1) The 4 selected MTX antibodies, 10C7, 45C11, 6D4, 19A6, were evaluated for cross-reactivity with MTX metabolites and related compounds (7-OH-MTX, DAMPA, Folic Acid and Folinic Acid). The amount of cross-reactivity with each chemical is defined as the percent ratio of the calculated MTX concentration of the chemical divided by 100 μM, which was the spiked concentration of the chemical.
# [2] = MTX antibody cross-reactivity with Folic Acid (competitive assay)
# Procedure: as §1
# [3] = MTX antibody cross-reactivity with 7-OH-MTX (competitive assay)
# Procedure: as §1
# [4] = MTX antibody cross-reactivity with DAMPA (competitive assay)
# Procedure: as §1
Molecule,% Cross-Reactivity with Folinic Acid [1],% Cross-Reactivity with Folic Acid [2],% Cross-Reactivity with 7-OH-MTX [3],% Cross-Reactivity with DAMPA [4]
"mAb 6D4: anti-methotrexate mouse monoclonal antibody; variable heavy chain SEQ ID NO:11, variable light chain SEQ ID NO:12 (antibody, V domains shown, mouse) VH: QIQLVQSGPELKKPGETVKISCKASGYTFTNYGMNWVKRAPGKGLKWMGWINPYTGEPTYADDFKGRFAFSLETSASTAYLQINNLKNEDMATYFCARNDYYYALDSWGQGTSVTVSS VL: DVVMTQSPLSLPVSLGDQASISCRSSQSLVKSNGNTYLHWFLQKSGQSPKLLIYKVSNRFSGVPDRFSGSGSGTDFTLKISRVEAEDLGVYFCSQSTHVPWTFGGGTKLEIK",0.24%,0.48%,0.91%,0.52%
"mAb 19A6: anti-methotrexate mouse monoclonal antibody; variable heavy chain SEQ ID NO:7, variable light chain SEQ ID NO:8 (antibody, V domains shown, mouse) VH: QIQLVQSGPELKRPGETVKISCKASGYTYTYYGINWLKQAPGKDLKWMGWINPYTGEPAYADDFKGRFAFSLETSATTTYLQINNLKNEDMATYFCARNSYYYALDYWGQGTSVTVSS VL: DVVMTQTPLSLPVNLGDQASISCRSSQNLVKSNGNTYLHWFLQKPGQSPKLLIYKVSNRFSGVPDRFSGSGSGTDFTLKISRVEAEDLGVYFCSQSTHVPWTFGGGTKLEIK",0.11%,0.073%,0.76%,0.029%
"mAb 10C7: anti-methotrexate mouse monoclonal antibody; variable heavy chain SEQ ID NO:3, variable light chain SEQ ID NO:4 (antibody, V domains shown, mouse) VH: EVQLVESGGGLVKPGGSLRLSCAASGFTFRTYAMSWVRQTPEKRLEWVATITSGGTYIYYLDSVKGRFTISRDNAKNVLYLQMSSLRSEDTAMYYCVRLYGYDGMDYWGQGTSVTVSA VL: QAVVTQESALTTSPGETVTLTCRSSTGAVSTSNYVNWVQEKPDHLFTGLIGGTKNRVPGVPARFSGSLIGDKAALTITGAQTEDEAIYFCALWYTNHLVFGGGTKLTVL",0.28%,0.24%,0.37%,0.43%
